Experimental data from IntAct's records for PubMed 29039417.

B1: BBSome complex member BBS1 (Homo sapiens), Q8NFJ9 (parent)
chain: MAAASSSDSDACGAESNEANSKWLDAHYDPMANIHTFSACLALADLHGDGEYKLVVGDLGPGGQQPRLKVLKGPLVMTESPLPALPAAAATFLMEQHEPRTPALALASGPCVYVYKNLRPYFKFSLPQLPPNPLEQDLWNQAKEDRIDPLTLKEMLESIRETAEEPLSIQSLRFLQLELSEMEAFVNQHKSNSIKRQTVITTMTTLKKNLADEDAVSCLVLGTENKELLVLDPEAFTILAKMSLPSVPVFLEVSGQFDVEFRLAAACRNGNIYILRRDSKHPKYCIELSAQPVGLIRVHKVLVVGSTQDSLHGFTHKGKKLWTVQMPAAILTMNLLEQHSRGLQAVMAGLANGEVRIYRDKALLNVIHTPDAVTSLCFGRYGREDNTLIMTTRGGGLIIKILKRTAVFVEGGSEVGPPPAQAMKLNVPRKTRLYVDQTLREREAGTAMHRAFQTDLYLLRLRAARAYLQALESSLSPLSTTAREPLKLHAVVQGLGPTFKLTLHLQNTSTTRPVLGLLVCFLYNEALYSLPRAFFKVPLLVPGLNYPLETFVESLSNKGISDIIKVLVLREGQSAPLLSAHVNMPGSEGLAAA
partner: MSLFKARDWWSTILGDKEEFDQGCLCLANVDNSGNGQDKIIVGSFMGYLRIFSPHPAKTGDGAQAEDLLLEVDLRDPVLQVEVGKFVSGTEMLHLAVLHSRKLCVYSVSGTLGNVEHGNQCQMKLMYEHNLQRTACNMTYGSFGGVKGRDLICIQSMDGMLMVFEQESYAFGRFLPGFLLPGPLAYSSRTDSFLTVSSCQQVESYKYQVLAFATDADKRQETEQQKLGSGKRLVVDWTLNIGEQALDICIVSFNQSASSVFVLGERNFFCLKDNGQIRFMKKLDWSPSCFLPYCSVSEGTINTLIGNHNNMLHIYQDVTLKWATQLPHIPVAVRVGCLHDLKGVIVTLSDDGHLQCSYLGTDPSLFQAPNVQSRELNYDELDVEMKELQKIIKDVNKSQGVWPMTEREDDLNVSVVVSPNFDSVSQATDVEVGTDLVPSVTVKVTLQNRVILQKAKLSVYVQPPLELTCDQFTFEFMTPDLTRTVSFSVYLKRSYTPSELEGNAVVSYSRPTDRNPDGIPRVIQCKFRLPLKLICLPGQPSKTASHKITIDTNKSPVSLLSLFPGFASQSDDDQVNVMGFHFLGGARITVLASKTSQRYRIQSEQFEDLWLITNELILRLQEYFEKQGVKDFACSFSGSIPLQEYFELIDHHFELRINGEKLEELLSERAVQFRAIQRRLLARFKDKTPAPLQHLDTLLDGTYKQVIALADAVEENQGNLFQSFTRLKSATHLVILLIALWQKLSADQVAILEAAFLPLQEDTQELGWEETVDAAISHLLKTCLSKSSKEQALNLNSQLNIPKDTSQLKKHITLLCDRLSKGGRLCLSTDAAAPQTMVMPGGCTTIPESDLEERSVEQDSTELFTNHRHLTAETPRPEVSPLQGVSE

Variants of: B1
Details: with pthb1_human BBS9, Q3SYG4

Effect of a mutation on the interaction, with no effect:
MAAASSSDSDACGAESNEANSKWLDAHYDPMANIHTFSACLALADLHGDGEYKLVVGDLGPGGQQPRLKVLKGPLVMTESPLPALPAAAATFLMEQHEPRTPALALASGPCVYVYKNLRPYFKFSLPQLPPNPLEQDLWNQAKEDRIDPLTLKEMLESIRETAEEPLSIQSLRFLQLELSEMEAFVNQHKSNSIKRQTVITTMTTLKKNLADEDAVSCLVLGTENKELLVLDPEAFTILAKMSLPSVPVFLEVSGQFDVEFRLAAACRNGNIYILRRDSKHPKYCIELSAQPVGLIRVHKVLVVGSTQDSLHGFTHKGKKLWTVQMPAAILTMNLLEQHSRGLQAVMAGLANGEVRIYRDKALLNVIHTPDAVTSLCFGRYGREDNTLIMTTRGGGLIIKILKRTAVFVEGGSEVGPPPAQAMKLNVPRKTRLYVDQTLREREAGTAMHRAFQTDLYLLRLRAARAYLQALESSLSPLSTTAREPLKLHAVVQGLGPTFKLTLHLQNTSTTRPVLGLLVCFLYNEALYSLPRAFFKVPLLVPGLNYPLETFVESLSNKGISDIIKVLVLREGQSAPLLSAHVNMPASEGLAAA [G586A]
MAAASSSDSDACGAESNEANSKWLDAHYDPMANIHTFSACLALADLHGDGEYKLVVGDLGPGGQQPRLKVLKGPLVMTESPLPALPAAAATFLMEQHEPRTPALALASGPCVYVYKNLRPYFKFSLPQLPPNPLEQDLWNQAKEDRIDPLTLKEMLESIRETAEEPLSIQSLRFLQLELSEMEAFVNQHKSNSIKRQTVITTMTTLKKNLADEDAVSCLVLGTENKELLVLDPEAFTILAKMSLPSVPVFLEVSGQFDVEFRLAAACRNGNIYILRRDSKHPKYCIELSAQPVGLIRVHKVLVVGSTQDSLHGFTHKGKKLWTVQMPAAILTMNLLEQHSRGLQAVMAGLANGEVRIYRDKALLNVIHTPDAVTSLCFGRYGREDNTLIMTTRGGGLIIKILKRTAVFVEGGSEVGPPPAQAMKLNVPRKTRLYVDQTLREREAGTAMHRAFQTDLYLLRLRAARAYLQALESSLSPLSTTAREPLKLHAVVQGLGPTFKLTLHLQNTSTTRPVLGLLVCFLYNEALYSLPRAFFKVPLLVPGLNYPLETFVESLSNKGISDIIKVLVLREGQSAPLLSAHVNKPGSEGLAAA [M584K]
MAAASSSDSDACGAESNEANSKWLDAHYDPMANIHTFSACLALADLHGDGEYKLVVGDLGPGGQQPRLKVLKGPLVMTESPLPALPAAAATFLMEQHEPRTPALALASGPCVYVYKNLRPYFKFSLPQLPPNPLEQDLWNQAKEDRIDPLTLKEMLESIRETAEEPLSIQSLRFLQLELSEMEAFVNQHKSNSIKRQTVITTMTTLKKNLADEDAVSCLVLGTENKELLVLDPEAFTILAKMSLPSVPVFLEVSGQFDVEFRLAAACRNGNIYILRRDSKHPKYCIELSAQPVGLIRVHKVLVVGSTQDSLHGFTHKGKKLWTVQMPAAILTMNLLEQHSRGLQAVMAGLANGEVRIYRDKALLNVIHTPDAVTSLCFGRYGREDNTLIMTTRGGGLIIKILKRTAVFVEGGSEVGPPPAQAMKLNVPRKTRLYVDQTLREREAGTAMHRAFQTDLYLLRLRAARAYLQALESSLSPLSTTAREPLKLHAVVQGLGPTFKLTLHLQNTSTTRPVLGLLVCFLYNEALYSLPRAFFKVPLLVPGLNYPLETFVESLSNKGISDIIKVLVLREGQSAPLLSAHVNEPGSEGLAAA [M584E]
MAAASSSDSDACGAESNEANSKWLDAHYDPMANIHTFSACLALADLHGDGEYKLVVGDLGPGGQQPRLKVLKGPLVMTESPLPALPAAAATFLMEQHEPRTPALALASGPCVYVYKNLRPYFKFSLPQLPPNPLEQDLWNQAKEDRIDPLTLKEMLESIRETAEEPLSIQSLRFLQLELSEMEAFVNQHKSNSIKRQTVITTMTTLKKNLADEDAVSCLVLGTENKELLVLDPEAFTILAKMSLPSVPVFLEVSGQFDVEFRLAAACRNGNIYILRRDSKHPKYCIELSAQPVGLIRVHKVLVVGSTQDSLHGFTHKGKKLWTVQMPAAILTMNLLEQHSRGLQAVMAGLANGEVRIYRDKALLNVIHTPDAVTSLCFGRYGREDNTLIMTTRGGGLIIKILKRTAVFVEGGSEVGPPPAQAMKLNVPRKTRLYVDQTLREREAGTAMHRAFQTDLYLLRLRAARAYLQALESSLSPLSTTAREPLKLHAVVQGLGPTFKLTLHLQNTSTTRPVLGLLVCFLYNEALYSLPRAFFKVPLLVPGLNYPLETFVESLSNKGISDIIKVLVLREGQSAPLLSAHVNAPGSEGLAAA [M584A]
MAAASSSDSDACGAESNEANSKWLDAHYDPMANIHTFSACLALADLHGDGEYKLVVGDLGPGGQQPRLKVLKGPLVMTESPLPALPAAAATFLMEQHEPRTPALALASGPCVYVYKNLRPYFKFSLPQLPPNPLEQDLWNQAKEDRIDPLTLKEMLESIRETAEEPLSIQSLRFLQLELSEMEAFVNQHKSNSIKRQTVITTMTTLKKNLADEDAVSCLVLGTENKELLVLDPEAFTILAKMSLPSVPVFLEVSGQFDVEFRLAAACRNGNIYILRRDSKHPKYCIELSAQPVGLIRVHKVLVVGSTQDSLHGFTHKGKKLWTVQMPAAILTMNLLEQHSRGLQAVMAGLANGEVRIYRDKALLNVIHTPDAVTSLCFGRYGREDNTLIMTTRGGGLIIKILKRTAVFVEGGSEVGPPPAQAMKLNVPRKTRLYVDQTLREREAGTAMHRAFQTDLYLLRLRAARAYLQALESSLSPLSTTAREPLKLHAVVQGLGPTFKLTLHLQNTSTTRPVLGLLVCFLYNEALYSLPRAFFKVPLLVPGLNYPLETFVESLSNKGISDIIKVLVLREGQSAPLLSAHVEMPGSEGLAAA [N583E]
MAAASSSDSDACGAESNEANSKWLDAHYDPMANIHTFSACLALADLHGDGEYKLVVGDLGPGGQQPRLKVLKGPLVMTESPLPALPAAAATFLMEQHEPRTPALALASGPCVYVYKNLRPYFKFSLPQLPPNPLEQDLWNQAKEDRIDPLTLKEMLESIRETAEEPLSIQSLRFLQLELSEMEAFVNQHKSNSIKRQTVITTMTTLKKNLADEDAVSCLVLGTENKELLVLDPEAFTILAKMSLPSVPVFLEVSGQFDVEFRLAAACRNGNIYILRRDSKHPKYCIELSAQPVGLIRVHKVLVVGSTQDSLHGFTHKGKKLWTVQMPAAILTMNLLEQHSRGLQAVMAGLANGEVRIYRDKALLNVIHTPDAVTSLCFGRYGREDNTLIMTTRGGGLIIKILKRTAVFVEGGSEVGPPPAQAMKLNVPRKTRLYVDQTLREREAGTAMHRAFQTDLYLLRLRAARAYLQALESSLSPLSTTAREPLKLHAVVQGLGPTFKLTLHLQNTSTTRPVLGLLVCFLYNEALYSLPRAFFKVPLLVPGLNYPLETFVESLSNKGISDIIKVLVLREGQSAPLLSAHVAMPGSEGLAAA [N583A]
MAAASSSDSDACGAESNEANSKWLDAHYDPMANIHTFSACLALADLHGDGEYKLVVGDLGPGGQQPRLKVLKGPLVMTESPLPALPAAAATFLMEQHEPRTPALALASGPCVYVYKNLRPYFKFSLPQLPPNPLEQDLWNQAKEDRIDPLTLKEMLESIRETAEEPLSIQSLRFLQLELSEMEAFVNQHKSNSIKRQTVITTMTTLKKNLADEDAVSCLVLGTENKELLVLDPEAFTILAKMSLPSVPVFLEVSGQFDVEFRLAAACRNGNIYILRRDSKHPKYCIELSAQPVGLIRVHKVLVVGSTQDSLHGFTHKGKKLWTVQMPAAILTMNLLEQHSRGLQAVMAGLANGEVRIYRDKALLNVIHTPDAVTSLCFGRYGREDNTLIMTTRGGGLIIKILKRTAVFVEGGSEVGPPPAQAMKLNVPRKTRLYVDQTLREREAGTAMHRAFQTDLYLLRLRAARAYLQALESSLSPLSTTAREPLKLHAVVQGLGPTFKLTLHLQNTSTTRPVLGLLVCFLYNEALYSLPRAFFKVPLLVPGLNYPLETFVESLSNKGISDIIKVLVLREGQSAPLLSAHVKMPGSEGLAAA [N583K]
MAAASSSDSDACGAESNEANSKWLDAHYDPMANIHTFSACLALADLHGDGEYKLVVGDLGPGGQQPRLKVLKGPLVMTESPLPALPAAAATFLMEQHEPRTPALALASGPCVYVYKNLRPYFKFSLPQLPPNPLEQDLWNQAKEDRIDPLTLKEMLESIRETAEEPLSIQSLRFLQLELSEMEAFVNQHKSNSIKRQTVITTMTTLKKNLADEDAVSCLVLGTENKELLVLDPEAFTILAKMSLPSVPVFLEVSGQFDVEFRLAAACRNGNIYILRRDSKHPKYCIELSAQPVGLIRVHKVLVVGSTQDSLHGFTHKGKKLWTVQMPAAILTMNLLEQHSRGLQAVMAGLANGEVRIYRDKALLNVIHTPDAVTSLCFGRYGREDNTLIMTTRGGGLIIKILKRTAVFVEGGSEVGPPPAQAMKLNVPRKTRLYVDQTLREREAGTAMHRAFQTDLYLLRLRAARAYLQALESSLSPLSTTAREPLKLHAVVQGLGPTFKLTLHLQNTSTTRPVLGLLVCFLYNEALYSLPRAFFKVPLLVPGLNYPLETFVESLSNKGISDIIKVLVLREGQSAPLLSAHVNMAGSEGLAAA [P585A]
MAAASSSDSDACGAESNEANSKWLDAHYDPMANIHTFSACLALADLHGDGEYKLVVGDLGPGGQQPRLKVLKGPLVMTESPLPALPAAAATFLMEQHEPRTPALALASGPCVYVYKNLRPYFKFSLPQLPPNPLEQDLWNQAKEDRIDPLTLKEMLESIRETAEEPLSIQSLRFLQLELSEMEAFVNQHKSNSIKRQTVITTMTTLKKNLADEDAVSCLVLGTENKELLVLDPEAFTILAKMSLPSVPVFLEVSGQFDVEFRLAAACRNGNIYILRRDSKHPKYCIELSAQPVGLIRVHKVLVVGSTQDSLHGFTHKGKKLWTVQMPAAILTMNLLEQHSRGLQAVMAGLANGEVRIYRDKALLNVIHTPDAVTSLCFGRYGREDNTLIMTTRGGGLIIKILKRTAVFVEGGSEVGPPPAQAMKLNVPRKTRLYVDQTLREREAGTAMHRAFQTDLYLLRLRAARAYLQALESSLSPLSTTAREPLKLHAVVQGLGPTFKLTLHLQNTSTTRPVLGLLVCFLYNEALYSLPRAFFKVPLLVPGLNYPLETFVESLSNKGISDIIKVLVLREGQSAPLLSAHVNMKGSEGLAAA [P585K]
MAAASSSDSDACGAESNEANSKWLDAHYDPMANIHTFSACLALADLHGDGEYKLVVGDLGPGGQQPRLKVLKGPLVMTESPLPALPAAAATFLMEQHEPRTPALALASGPCVYVYKNLRPYFKFSLPQLPPNPLEQDLWNQAKEDRIDPLTLKEMLESIRETAEEPLSIQSLRFLQLELSEMEAFVNQHKSNSIKRQTVITTMTTLKKNLADEDAVSCLVLGTENKELLVLDPEAFTILAKMSLPSVPVFLEVSGQFDVEFRLAAACRNGNIYILRRDSKHPKYCIELSAQPVGLIRVHKVLVVGSTQDSLHGFTHKGKKLWTVQMPAAILTMNLLEQHSRGLQAVMAGLANGEVRIYRDKALLNVIHTPDAVTSLCFGRYGREDNTLIMTTRGGGLIIKILKRTAVFVEGGSEVGPPPAQAMKLNVPRKTRLYVDQTLREREAGTAMHRAFQTDLYLLRLRAARAYLQALESSLSPLSTTAREPLKLHAVVQGLGPTFKLTLHLQNTSTTRPVLGLLVCFLYNEALYSLPRAFFKVPLLVPGLNYPLETFVESLSNKGISDIIKVLVLREGQSAPLLSAHVNMEGSEGLAAA [P585E]
